According to the Immune Epitope Database (IEDB):

Tests used:
[1] = target: HLA-A*02:01; assay: IEDB peptide-MHC binding, purified MHC/direct/fluorescence; filed as Kd, often an IC50 or EC50 that approximates it; ≥ and ≤ were set here for values at or beyond the usual limits of such assays
[2] = target: HLA-A*11:01; assay: as above
[3] = target: HLA-A*31:01; assay: as above
[4] = target: HLA-B*07:02; assay: as above
[5] = target: HLA-B*27:05; assay: as above
[6] = target: HLA-B*40:01; assay: as above
[7] = target: HLA-B*48:01; assay: as above
[8] = target: HLA-B*58:01; assay: as above
[9] = target: HLA-A*01:01; assay: IEDB peptide-MHC binding, purified MHC/competitive/fluorescence; filed as Kd, often an IC50 or EC50 that approximates it; ≥ and ≤ were set here for values at or beyond the usual limits of such assays
[10] = target: HLA-A*02:06; assay: as above; details: source organism: Mycobacterium tuberculosis variant bovis BCG str. Pasteur 1173P2
[11] = target: HLA-A*26:01; assay: as above
[12] = target: HLA-A*26:02; assay: as above; details: source organism: Mycobacterium tuberculosis variant bovis BCG str. Pasteur 1173P2
[13] = target: HLA-A*26:03; assay: as above; details: source organism: Mycobacterium tuberculosis variant bovis BCG str. Pasteur 1173P2
[14] = target: HLA-A*68:02; assay: as above; details: source organism: Mycobacterium tuberculosis variant bovis BCG str. Pasteur 1173P2
[15] = target: HLA-A*69:01; assay: as above
[16] = target: HLA-B*15:17; assay: as above
[17] = target: HLA-A*01:01; assay: IEDB peptide-MHC binding, purified MHC/direct/fluorescence; filed as Kd, often an IC50 or EC50 that approximates it; ≥ and ≤ were set here for values at or beyond the usual limits of such assays
[18] = target: HLA-A*69:01; assay: as above
[19] = target: HLA-B*46:01; assay: as above
[20] = target: HLA-B*57:01; assay: as above
[21] = target: HLA-B*15:01; assay: IEDB peptide-MHC binding, purified MHC/competitive/fluorescence; filed as Kd, often an IC50 or EC50 that approximates it; ≥ and ≤ were set here for values at or beyond the usual limits of such assays
[22] = target: HLA-B*18:01; assay: as above; details: source organism: Mycobacterium tuberculosis variant bovis BCG str. Pasteur 1173P2
[23] = target: HLA-B*35:01; assay: as above; details: source organism: Mycobacterium tuberculosis variant bovis BCG str. Pasteur 1173P2
[24] = target: HLA-A*26:02; assay: IEDB peptide-MHC binding, purified MHC/direct/fluorescence; filed as Kd, often an IC50 or EC50 that approximates it; ≥ and ≤ were set here for values at or beyond the usual limits of such assays; details: source organism: West Nile virus strain PTRoxo
[25] = target: HLA-A*32:07; assay: IEDB peptide-MHC binding, purified MHC/competitive/fluorescence; filed as Kd, often an IC50 or EC50 that approximates it; ≥ and ≤ were set here for values at or beyond the usual limits of such assays; details: source organism: West Nile virus
[26] = target: HLA-A*32:15; assay: as above; details: source organism: West Nile virus
[27] = target: HLA-B*15:42; assay: as above; details: source organism: West Nile virus
[28] = target: HLA-B*45:06; assay: as above; details: source organism: West Nile virus
[29] = target: HLA-B*83:01; assay: as above; details: source organism: West Nile virus
[30] = target: HLA-A*03:01; assay: IEDB peptide-MHC binding, purified MHC/direct/fluorescence; filed as Kd, often an IC50 or EC50 that approximates it; ≥ and ≤ were set here for values at or beyond the usual limits of such assays
[31] = target: HLA-B*15:01; assay: as above
[32] = target: HLA-B*15:17; assay: as above
[33] = target: HLA-B*18:01; assay: as above
[34] = target: HLA-B*38:01; assay: as above
[35] = target: HLA-B*51:01; assay: as above
[36] = target: HLA-B*39:01; assay: as above
[37] = target: HLA-A*02:01; assay: IEDB peptide-MHC binding, purified MHC/competitive/fluorescence; filed as Kd, often an IC50 or EC50 that approximates it; ≥ and ≤ were set here for values at or beyond the usual limits of such assays; details: source organism: Vibrio vulnificus YJ016
[38] = target: HLA-A*30:01; assay: as above; details: source organism: Vibrio vulnificus YJ016
[39] = target: HLA-A*26:01; assay: IEDB peptide-MHC binding, purified MHC/direct/fluorescence; filed as Kd, often an IC50 or EC50 that approximates it; ≥ and ≤ were set here for values at or beyond the usual limits of such assays; details: source organism: Vibrio parahaemolyticus AQ3810
[40] = target: HLA-B*08:02; assay: as above; details: source organism: Vibrio parahaemolyticus AQ3810
[41] = target: HLA-A*03:01; assay: IEDB peptide-MHC binding, purified MHC/competitive/fluorescence; filed as Kd, often an IC50 or EC50 that approximates it; ≥ and ≤ were set here for values at or beyond the usual limits of such assays; details: source organism: Vibrio parahaemolyticus RIMD 2210633
[42] = source organism: Mycobacterium tuberculosis
[43] = source organism: Mycobacterium tuberculosis variant bovis BCG str. Pasteur 1173P2
[44] = source organism: Mycobacterium tuberculosis str. Haarlem
[45] = source organism: Vibrio vulnificus YJ016
[46] = source organism: Vibrio parahaemolyticus
[47] = source organism: Vibrio parahaemolyticus AQ3810
[48] = source organism: Vibrio parahaemolyticus RIMD 2210633

Sequence: ATADLELAY
- Kd [1, 42]: 0.818 µM
- Kd [2, 42]: 0.0105 µM
- Kd [3, 42]: ≥ 20 µM
- Kd [4, 42]: ≥ 20 µM
- Kd [5, 42]: ≥ 20 µM
- Kd [6, 42]: ≥ 20 µM
- Kd [7, 42]: ≥ 20 µM
- Kd [8, 42]: 0.0098 µM
- Kd [9, 43]: 0.0227 µM
- Kd [10]: 2.5 µM
- Kd [11, 43]: 0.428 µM
- Kd [12]: 0.13 µM
- Kd [13]: ≥ 20 µM
- Kd [14]: ≥ 20 µM
- Kd [15, 43]: ≥ 20 µM
- Kd [16, 43]: 0.0111 µM

Sequence: AVFLSYIGY
- Kd [17, 42]: ≥ 20 µM
- Kd [1, 42]: ≥ 20 µM
- Kd [2, 42]: 1.56 µM
- Kd [3, 42]: ≥ 20 µM
- Kd [18, 42]: ≥ 20 µM
- Kd [4, 42]: ≥ 20 µM
- Kd [5, 42]: ≥ 20 µM
- Kd [6, 42]: ≥ 20 µM
- Kd [19, 42]: ≥ 20 µM
- Kd [7, 42]: ≥ 20 µM
- Kd [20, 42]: ≥ 20 µM
- Kd [8, 42]: 17 µM
- Kd [11, 43]: ≥ 20 µM
- Kd [13]: ≥ 20 µM
- Kd [14]: 3.04 µM
- Kd [21, 43]: 1.84 µM
- Kd [16, 43]: 0.315 µM
- Kd [22]: ≥ 20 µM
- Kd [23]: 3.95 µM

Sequence: ETTNWLWAF
- Kd [24]: ≤ 0.001 µM
- Kd [25]: 0.0263 µM
- Kd [26]: 0.0251 µM
- Kd [27]: ≥ 5 µM
- Kd [28]: ≥ 5 µM
- Kd [29]: ≥ 5 µM

Sequence: GPAGYTAAL
- Kd [1, 42]: ≥ 20 µM
- Kd [30, 42]: ≥ 20 µM
- Kd [2, 42]: ≥ 20 µM
- Kd [3, 42]: ≥ 20 µM
- Kd [18, 42]: ≥ 20 µM
- Kd [31, 42]: ≥ 20 µM
- Kd [32, 42]: ≥ 20 µM
- Kd [33, 42]: ≥ 20 µM
- Kd [5, 42]: ≥ 20 µM
- Kd [34, 44]: ≥ 20 µM
- Kd [6, 42]: ≥ 20 µM
- Kd [19, 42]: ≥ 20 µM
- Kd [7, 42]: ≥ 20 µM
- Kd [35, 42]: ≥ 20 µM
- Kd [20, 42]: ≥ 20 µM
- Kd [8, 42]: ≥ 20 µM
- Kd [9, 44]: ≥ 20 µM

Sequence: IVAQGIAAL
- Kd [17, 45]: ≥ 20 µM
- Kd [30, 45]: ≥ 20 µM
- Kd [2, 45]: ≥ 20 µM
- Kd [3, 45]: ≥ 20 µM
- Kd [4, 45]: 0.086 µM
- Kd [31, 45]: 0.048 µM
- Kd [32, 45]: 0.0475 µM
- Kd [33, 45]: ≥ 20 µM
- Kd [5, 45]: ≥ 20 µM
- Kd [34, 45]: ≥ 20 µM
- Kd [36, 45]: 0.22 µM
- Kd [6, 45]: ≥ 20 µM
- Kd [19, 45]: 9 µM
- Kd [7, 45]: ≥ 20 µM
- Kd [35, 45]: ≥ 20 µM
- Kd [20, 45]: ≥ 20 µM
- Kd [8, 45]: ≥ 20 µM
- Kd [37]: 0.0181 µM
- Kd [11, 45]: ≥ 20 µM
- Kd [38]: ≥ 20 µM
- Kd [15, 45]: 0.0077 µM

Sequence: RSTLANGWY
- Kd [17, 46]: 0.274 µM
- Kd [1, 46]: ≥ 20 µM
- Kd [2, 46]: ≥ 20 µM
- Kd [39]: 0.59 µM
- Kd [3, 46]: ≥ 20 µM
- Kd [18, 46]: ≥ 20 µM
- Kd [40]: ≥ 20 µM
- Kd [33, 46]: ≥ 20 µM
- Kd [5, 46]: ≥ 20 µM
- Kd [34, 47]: ≥ 20 µM
- Kd [36, 47]: ≥ 20 µM
- Kd [6, 46]: ≥ 20 µM
- Kd [19, 46]: ≥ 20 µM
- Kd [7, 46]: ≥ 20 µM
- Kd [20, 46]: 0.268 µM
- Kd [8, 46]: 0.059 µM
- Kd [41]: 1.48 µM
- Kd [21, 48]: 0.0942 µM
- Kd [16, 48]: 0.0012 µM
